Measurements as given in US12062453B2, “Self-titrating bacterial protease-activated prodrug” (GEORGIA TECH RESEARCH CORPORATION, priority 2018, dated 2024).
Like-named read-outs stand apart in the source and are kept apart here.

Assays:
[1] = system: DH5a Escherichia coli; type: cell-based
Method: Bacterial culture and cytotoxicity measurement: DH5a Escherichia coli were a gift from Todd Sulchek's BioMEMS lab at Georgia Tech. E. coli were cultured in LB broth (Lennox) at 37 C and plated on LB agar (Lennox) plates. LB broth was purchased from Millipore Sigma (Burlington, Mass.) and LB agar was purchased from Invitrogen (Carlsbad, Calif.). AMP and locked AMP were custom ordered from Genscript (Piscataway, NJ). […] Concentration was estimated by measuring the OD600 of the bacterial suspension, and assuming an OD600 of 1.000 corresponds to a concentration of 8×10^8 CFU/mL. Bacterial cell viability was measured by making eight 10-fold serial dilutions, and plating three 10 uL spots on an LB agar plate. Plates were incubated overnight at 37° C., and CFUs were counted.

[2] = molecular target: T1, OmpT (Escherichia coli, UniProt P09169); type: cell-based, E. coli; parameters: OmpT expressed on the surface of E. coli; endogenous in cells; host or cells: DH5a Escherichia coli
T1 sequence (P09169 21-317): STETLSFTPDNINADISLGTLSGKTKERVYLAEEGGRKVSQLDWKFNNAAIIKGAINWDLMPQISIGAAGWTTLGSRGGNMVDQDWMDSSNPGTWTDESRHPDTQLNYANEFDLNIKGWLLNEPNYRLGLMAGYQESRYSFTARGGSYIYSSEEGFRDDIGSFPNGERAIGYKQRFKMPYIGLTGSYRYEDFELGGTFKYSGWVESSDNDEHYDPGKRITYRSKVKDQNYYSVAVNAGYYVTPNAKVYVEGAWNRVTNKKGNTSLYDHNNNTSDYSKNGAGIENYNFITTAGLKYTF
Method: To model the rate of enzymatic activation of locked drugs, L, by OmpT, Michaelis-Menten (MM) kinetics were applied, where the rate of substrate activation is determined by the catalytic rate of the reaction, kcat, and the half-maximal substrate concentration, Km (Equation 1.3). Here it was assumed the system constituted a well-mixed solution of freely diffusing substrates (i.e., locked drug) in large excess, which were valid assumptions for this study since AMP prodrug was present at concentrations ˜102 micromolar in an aqueous environment. Because the total amount of drug is conserved, the MM activation rate of unlocked drug, U, was defined as opposite of the degradation rate of locked drug L (Equation 1.4). A term to account for the loss of active AMPS was included according to a proportionality constant, a*, that represents the number AMP required to kill one E. coli. This term was necessary as AMPS lyse E. coli by intercalating with bacterial membranes (Roversi, et al. ACS Chemical Biology, 9:2-3-2007 (2014)) and therefore are removed from the system and unable to target additional bacteria.
To fit this model to the disclosed system, the values for relevant parameters, including enzymatic efficiency (e.g., kcat, Km), bacterial growth (e.g., r, Bmax), and prodrug activity (e.g., a, a*) were measured (FIGS. 2A-2D, Table 2). This allowed for the prediction of bacteria-prodrug response curves (FIGS. 3B-3J) across nine distinct combinations of kcat and r values, which were experimentally controlled by altering the ambient temperature and concentration of broth (conditions labeled A1-3, B1-3, and C1-3). […] To experimentally validate the model predictions, bacteria were incubated with prodrugs under the defined nine conditions, and the number of living bacteria were quantified longitudinally over the course of a 24 hour treatment window. […]

[3] = molecular target: T2, OmpT expressed on the surface of E. coli (Escherichia coli, UniProt P09169); type: cell-based
T2 construct: OmpT expressed on the surface of E. coli; endogenous in cells; host or cells: DH5a Escherichia coli
T2 sequence (P09169 21-317): as above

[4] = molecular target: T1, OmpT; type: biochemical, E. coli; parameters: purchased Lifespan Biosciences (Seattle, WA)
Method: Protease Cleavage Assays: All protease cleavage assays were performed with a BioTek Cytation 5 Imaging Plate Reader, taking fluorescent measurements at 485/528 nm (excitation/emission) for read-outs measuring peptide substrates terminated with FITC (Fluorescein isothiocyanate). Kinetic measurements were taken every minute over the course of 60-120 minutes at 37 C. Tobacco Etch Virus protease (TEVp), along with its substrate and buffer was obtained from Anaspec, Inc. (Fremont, Calif.). Activity RFU measurements were normalized to time 0 measurement, and as such represent fold change in signal. Outer Membrane Protease T (i.e., OmpT, Protease 7) was purchased from Lifespan Biosciences (Seattle, WA). OmpT fluorescent peptide substrate was custom ordered from Genscript (Piscataway, NJ).

AMP: cationic (polyarginine) antimicrobial peptide, the unlocked drug (KLAKLAKKLAKLAK; Bacterial protease substrate)
Cytotoxicity of unlocked drug (colonies) [1]: significant reduction in colonies
a*, AMP decay (number of AMP required to kill one E. coli) [2]: 2.4e11 AMP/bacteria
a, cytotoxic efficiency, EC50 [2]: 1e11 h^−1, AMP/bacteria/hr

Aprotinin
OmpT activity in samples containing inhibitor ([3]; live E. coli culture plus inhibitor): no activity was observed
Bacteria load after prodrug treatment ([1]; locked AMP plus Aprotinin inhibitor): did not significantly reduce bacteria load
OmpT activity in samples containing inhibitor ([4]; recombinant OmpT plus inhibitor): no activity was observed

DABCYL-RRSRRV-Lys(5-FAM) [OmpT Probe]
OmpT cleavage activity against fluorophore-quencher linker probe ([3]; live E. coli culture): OmpT activity was detected
OmpT cleavage activity against fluorophore-quencher linker probe ([4]; recombinant OmpT): OmpT activity was detected

EEEEEEEEEEEEERRSRRVRRRRRRRRR [Locked AMP (linker 1)]
Bacteria load after prodrug treatment ([1]; prodrug alone): Elimination of bacteria
Km, Michaelis constant [2]: 9e+12 µL⁻¹
kcat ([2]; condition A1: 37 °C, LB broth 0%): 25 h^−1 × 10^10
kcat ([2]; condition A2: 30 °C, LB broth 2%): 13.6 h^−1 × 10^10
kcat ([2]; condition A3: 37 °C, LB broth 2%): 22 h^−1 × 10^10
kcat ([2]; condition B1: 37 °C, LB broth 4%): 15 h^−1 × 10^10
kcat ([2]; condition B2: 37 °C, LB broth 6%): 13.6 h^−1 × 10^10
kcat ([2]; condition B3: 37 °C, LB broth 20%): 1 h^−1 × 10^10
kcat ([2]; condition C1: 30 °C, LB broth 20%): 5.2 h^−1 × 10^10
kcat ([2]; condition C2: 30 °C, LB broth 66%): 4 h^−1 × 10^10
kcat ([2]; condition C3: 37 °C, LB broth 66%): 6 h^−1 × 10^10
kcat, enzyme catalytic turnover ([2]; range over conditions): 0.7-25e10 h^−1

EEEEEEEEENLYFQGRRRRRRRRR [Locked AMP (linker 3)]
Bacteria load after prodrug treatment ([1]; prodrug alone): did not significantly reduce bacteria load
Bacteria load after prodrug treatment ([1]; prodrug plus TEV protease): Elimination of bacteria
